Laboratory results: patent US9580508B2, “Bispecific EGFR/c-Met antibodies” (Janssen Biotech, Inc., priority 2012, dated 2017)
Entries after “also recorded” stand apart in the source; their conditions may differ. Like-named read-outs stand apart in the source and are kept apart here.

Experiments:
H1975 cells = assay: H1975 xenograft tumor efficacy; assay type: in vivo, nude mice; conditions: H1975 NSCLC, day 18, mAbs 10 mg/kg BIWx3wk, erlotinib 50, afatinib 15 mg/kg QDx21d
[1] = tested on: H1975 cells expressing human HGF; assay: H1975-HGF xenograft tumor efficacy; assay type: in vivo, nude mice; conditions: H1975-HGF NSCLC, day 16; mAbs 10 mg/kg BIWx3wk, erlotinib 50, afatinib 15 mg/kg QDx21d
[2] = tested on: H292-HGF human lung cancer xenograft; assay: H292-HGF human lung cancer xenograft: bispecific molecule versus other EGFR and c-Met inhibitors; conditions: mouse, in vivo
Experimental: (§1) The H292-HGF cells were maintained in vitro in RPMI1640 medium supplemented with fetal bovine serum (10% v/v), and L-glutamine (2 mM) at 37° C. in an atmosphere of 5% CO2 in air. The cells were routinely subcultured twice weekly by trypsin-EDTA treatment. The cells growing in an exponential growth phase were harvested and counted for tumor inoculation.
(§2) Each mouse was inoculated subcutaneously at the right flank region with H292-HGF tumor cells (2×10^6) in 0.1 ml of PBS with Cultrex (1:1) for tumor development. The treatments were started when the mean tumor size reached 139 mm^3. […] The date of tumor cell inoculation was denoted as day 0.
(§3) Before commencement of treatment, all animals were weighed and the tumor volumes were measured. Since the tumor volume can affect the effectiveness of any given treatment, mice were assigned into groups using randomized block design based upon their tumor volumes. […] The randomized block design was used to assign experimental animals to groups. First, the experimental animals were divided into homogeneous blocks according to their initial tumor volume. Secondly, within each block, randomization of experimental animals to treatments was conducted.
(§4) At the time of routine monitoring, the animals were checked for any effects of tumor growth and treatments on normal behavior, such as mobility, visual estimation of food and water consumption, body weight gain/loss (body weights were measured twice weekly), eye/hair matting and any other abnormal effect.
(§5) The endpoint was whether tumor growth can be delayed or tumor bearing mice can be cured. Tumor size was measured twice weekly in two dimensions using a caliper, and the volume was expressed in mm^3 using the formula: V=0.5 a×b^2 where a and b are the long and short diameters of the tumor, respectively. The tumor size was then used for calculations of both T-C and T/C values. T-C was calculated with T as the time (in days) required for the mean tumor size of the treatment group to reach 1000 mm^3, and C was the time (in days) for the mean tumor size of the control group to reach the same size. The T/C value (in percent) was an indication of antitumor efficacy; T and C were the mean tumor volume of the treated and control groups, respectively, on a given day. Complete tumor regression (CR) is defined as tumors that are reduced to below the limit of palpation (62.5 mm^3) Partial tumor regression (PR) is defined as tumors that are reduced from initial tumor volume. A minimum duration of CR or PR in 3 or more successive tumor measurements is required for a CP or PR to be considered durable.
(§6) Animals for which the body weight loss exceeded 20%, or for which the mean tumor size of the group exceeds 2000 mm^3 were euthanized. The study was terminated after two weeks of observation after the final dose.
(§7) Statistical analyses of difference in tumor volume among the groups were evaluated using a one-way ANOVA followed by individual comparisons using Games-Howell (equal variance not assumed). All data were analyzed using SPSS 18.0. p<0.05 was considered to be statistically significant.

[3] = tested on: H292-HGF human lung cancer xenograft
Experimental: as §1, §2, §3, §4, §5, §6, §7

NCI-H3255 cells = assay: cells; conditions: Homo sapiens, […] HGF
Experimental: NCI-H3255 and HCC-827 cells were plated as described above in “Inhibition of Human Tumor Cell Growth or Viability by Antibodies”. […] Some wells were left untreated with either HGF or antibodies as controls. Cells were incubated at 37° C., 5% CO2 for 72 hours, then viable cells were detected using CellTiter-Glo® reagent (Promega), and data were analyzed as described above in “Inhibition of Human Tumor Cell Growth (NCI-H292 growth and NCI-H322 growth assay)”.

[4] = tested on: NCI-H292 cells expressing human HGF; assay: H292-HGF xenograft tumor efficacy with four bispecific FN3 molecules; assay type: in vivo, SCID Beige mice; conditions: 25 mg/kg three times per week
Experimental: One week after implantation, mice were stratified into groups with equivalent tumor volumes (mean tumor volume=77.9+/−1.7 mm^3) Mice were dosed three times per week with the bispecific molecules and tumor volumes were recorded twice weekly.

[5] = mouse, in vivo, ip
Experimental: SCID Beige mice were subcutaneously inoculated with NCI-H292 cells expressing human HGF (2.0×10^6 cells in Cultrex (Trevigen) in a volume of 200 μL) on the dorsal flank of each animal. Tumor measurements were taken twice weekly until tumor volumes ranged between 150-250 mm^3. Mice were then given a single i.p. dose of bispecific EGFR/c-Met molecules (linked to an albumin binding domain to increase half-life) or PBS vehicle. At 6 h or 72 h after dosing, tumors were extracted and immediately frozen in liquid nitrogen. […] Tumors were weighed, cut into small pieces, and lysed in Lysing Matrix A tubes (LMA) containing RIPA buffer with HALT protease/phosphatase inhibitors (Pierce), 50 mM sodium fluoride (Sigma), 2 mM activated sodium orthovanadate (Sigma), and 1 mM PMSF (MesoScale Discovery). Lysates were removed from LMA matrix and centrifuged to remove insoluble protein. The soluble tumor protein was quantified with a BCA protein assay and diluted to equivalent protein levels in tumor lysis buffer. Phosphorylated c-Met, EGFR and ERK were measured using assay plates from MesoScale Discovery (according to Manufacturer's protocol and as described above).

EGFR = target: T1, EGFR (Homo sapiens, UniProt P00533); assay: Inhibition of EGFR phosphorylation in NCI-H441 cells; assay type: cell-based
T1 construct: endogenous in cells; host or cells: NCI-H441
Experimental: NCI-H292, NCI-H441, or NCI-H596 cells were plated in 96 well plates in RPMI medium containing 10% FBS. 24 hours later, medium was replaced with serum free RPMI. […] Cells were treated for 1 h with the monospecific or bispecific molecules and then stimulated with EGF, HGF, or a combination of EGF and HGF for 15 minutes at 37° C., 5% CO2. Cells were lysed with MSD Lysis Buffer and cell signaling was assessed using appropriate MSD Assay plates, according to manufacturer's instructions, as described above.

## CN(C)C/C=C/C(=O)Nc1cc2c(Nc3ccc(F)c(Cl)c3)ncnc2cc1O[C@H]1CCOC1 [afatinib]
H1975 cells
  % TGI (day of study); compared to PBS vehicle: 57 (18) %
H1975 cells; listed as Afatinib
  % TGI (day of study); compared to PBS vehicle: 57%
[1]
  % TGI (day of study); compared to PBS vehicle: 29 (16) %

## C[C@@H](Oc1cc(-c2cnn(C3CCNCC3)c2)cnc1N)c1c(Cl)ccc(F)c1Cl [crizotinib, reference compound]
[2]
  Tolerability / body weight loss: More severe body weight loss
[3]; day 7 (start of treatment)
  Tumor volume (mm^3): 140 ± 9 mm^3
[3]; mouse, in vivo
  Antitumor activity / response: no antitumor activity
[3]; tumor growth delay vs vehicle
  T − C (days) at 1000 mm^3: -1 days

## C#Cc1cccc(Nc2ncnc3cc(OCCOC)c(OCCOC)cc23)c1 [erlotinib]
[2]
  Tolerability / body weight loss: More severe body weight loss
H1975 cells
  % TGI (day of study); compared to PBS vehicle: 9 (18) %
NCI-H3255 cells; NCI-H3255, NCI-H3255, low attachment culture
  IC50: 47.1 nM
NCI-H3255 cells; NCI-H3255, NCI-H3255, standard 2D culture
  IC50: 122 nM
[1]
  % TGI (day of study); compared to PBS vehicle: 20 (16) %

B1: ECB39: bispecific FN3 with albumin binding domain: P53A1R5-17v2/P114AR7P94-A3, SEQ ID NO: 121 (protein)
chain: MLPAPKNLVVSEVTEDSARLSWADPHGFYDSFLIQYQESEKVGEAIVLTVPGSERSYDLTGLKPGTEYTVSIYGVHNVYKDTNMRGLPLSAIFTTAPAPAPAPAPLPAPKNLVVSRVTEDSARLSWTAPDAAFDSFWIRYFEFLGSGEAIVLTVPGSERSYDLTGLKPGTEYVVNIMGVKGGKISPPLSAIFTTAPAPAPAPAPLAEAKVLANRELDKYGVSDYYKNLINNAKTVEGVKALLDEILAALP
modifications: Bispecific EGFR/c-Met binding molecule
[4]
  Tumor growth inhibition: showed the most efficacy
[5]
  Tumor accumulation: significantly more tumor accumulation at 6 hours relative to the other molecules

B2: ECB38: bispecific FN3 with albumin binding domain: P54AR4-83v2/P114AR7P94-A3, SEQ ID NO: 120 (protein)
chain: MLPAPKNLVVSEVTEDSARLSWDDPWAFYESFLIQYQESEKVGEAIVLTVPGSERSYDLTGLKPGTEYTVSIYGVHNVYKDTNMRGLPLSAIFTTAPAPAPAPAPLPAPKNLVVSRVTEDSARLSWTAPDAAFDSFWIRYFEFLGSGEAIVLTVPGSERSYDLTGLKPGTEYVVNIMGVKGGKISPPLSAIFTTAPAPAPAPAPLAEAKVLANRELDKYGVSDYYKNLINNAKTVEGVKALLDEILAALP
modifications: Bispecific EGFR/c-Met binding molecule
[4]
  Tumor growth inhibition: showed the most efficacy
[3]; 25 mg/kg, 3 times/week×3 weeks
  Mice in which the treatment was tolerated: 7 out of 10
[3]; day 7 (start of treatment)
  Tumor volume (mm^3): 137 ± 7 mm^3
[3]; day 9
  Tumor volume (mm^3): 142 ± 7 mm^3
[3]; day 13
  Tumor volume (mm^3): 83 ± 6 mm^3
[3]; day 16
  Tumor volume (mm^3): 44 ± 7 mm^3
[3]; day 20
  Tumor volume (mm^3): 30 ± 6 mm^3
[3]; day 27
  Tumor volume (mm^3): 21 ± 5 mm^3
[3]; day 30
  Tumor volume (mm^3): 23 ± 6 mm^3
[3]; mouse, in vivo
  Tolerability / body weight loss: Slight toxicity
[3]; mouse, in vivo, listed as bispecific EGFR/c-Met molecule
  Antitumor activity / response: complete tumor regression (CR) in all mice; also recorded: complete response

B3: ECB5: bispecific FN3: P53A1R5-17v2-(GGGGS)4-P114AR7P94-A3, SEQ ID NO: 54 (protein)
chain: MLPAPKNLVVSEVTEDSARLSWADPHGFYDSFLIQYQESEKVGEAIVLTVPGSERSYDLTGLKPGTEYTVSIYGVHNVYKDTNMRGLPLSAIFTTGGGGSGGGGSGGGGSGGGGSMLPAPKNLVVSRVTEDSARLSWTAPDAAFDSFWIRYFEFLGSGEAIVLTVPGSERSYDLTGLKPGTEYVVNIMGVKGGKISPPLSAIFTT
modifications: bispecific EGFR/cMet binding molecule
EGFR
  Fold decrease of IC50 for inhibition of EGFR phosphorylation, bispecific vs monospecific EGFR-binding FN3 domain: 30 fold
